Test [1] has as its target HLA-C*12:03. Kind of test: IEDB peptide-MHC binding, purified MHC/direct/fluorescence; filed as Kd, often an IC50 or EC50 that approximates it; ≥ and ≤ were set here for values at or beyond the usual limits of such assays.
Test [2] deals with HLA-A*02:01. Nature of the test: IEDB peptide-MHC binding, purified MHC/competitive/fluorescence; filed as Kd, often an IC50 or EC50 that approximates it; ≥ and ≤ were set here for values at or beyond the usual limits of such assays.
The target in test [3] is HLA-A*02:03. The test is described as above. The conditions noted are these: source organism: Entamoeba histolytica.
Test [4] has as its target HLA-A*02:11. The description is as above. The conditions noted are these: source organism: Entamoeba histolytica.
For test [5], the target named is HLA-A*02:12. The description is as above. The conditions noted are these: source organism: Entamoeba histolytica.
For test [6], the target named is HLA-A*02:16. Described as above. The conditions noted are these: source organism: Entamoeba histolytica.
Test [7] deals with HLA-A*02:19. The test is described as above. The conditions noted are these: source organism: Entamoeba histolytica.
Test [8] addresses HLA-A*03:01. Described as above. The conditions noted are these: source organism: Entamoeba histolytica.
For test [9], the target named is HLA-A*26:01. Described as above. The conditions noted are these: source organism: Entamoeba histolytica.
Test [10] has as its target HLA-A*29:02. Described as above. The conditions noted are these: source organism: Entamoeba histolytica.
In test [11] the target is HLA-A*68:02. Described as above. The conditions noted are these: source organism: Entamoeba histolytica.
Test [12] has as its target HLA-A*69:01. The test is described as above. The conditions noted are these: source organism: Entamoeba histolytica.
Test [13] deals with HLA-B*15:01. Described as above. The conditions noted are these: source organism: Entamoeba histolytica.
Test [14] deals with HLA-B*27:03. The description is as above. The conditions noted are these: source organism: Entamoeba histolytica.
Test [15] concerns the target HLA-B*39:01. The test is described as above. The conditions noted are these: source organism: Entamoeba histolytica.
The target of test [16] is HLA-B*46:01. Described as above. The conditions noted are these: source organism: Entamoeba histolytica.
Test [17] concerns the target HLA-B*57:01. The description is as above. The conditions noted are these: source organism: Entamoeba histolytica.
The target in test [18] is HLA-A*01:01. Kind of test: IEDB peptide-MHC binding, purified MHC/direct/fluorescence; filed as Kd, often an IC50 or EC50 that approximates it; ≥ and ≤ were set here for values at or beyond the usual limits of such assays.
Test [19] has as its target HLA-A*03:01. The description is as above.
The target in test [20] is HLA-A*11:01. Described as above.
The target in test [21] is HLA-A*31:01. The test is described as above.
The target of test [22] is HLA-A*69:01. The test is described as above. The conditions noted are these: source organism: Bacillus anthracis.
Test [23] concerns the target HLA-B*08:02. The description is as above. The conditions noted are these: source organism: Bacillus anthracis str. A0465.
The target of test [24] is HLA-B*15:01. Described as above.
The target of test [25] is HLA-B*15:17. Described as above. The conditions noted are these: source organism: Bacillus anthracis.
Test [26] addresses HLA-B*27:05. The description is as above.
The target in test [27] is HLA-B*39:01. The test is described as above. The conditions noted are these: source organism: Bacillus anthracis str. A0465.
For test [28], the target named is HLA-B*40:01. The test is described as above.
The target of test [29] is HLA-B*46:01. Described as above.
In test [30] the target is HLA-B*48:01. Described as above.
For test [31], the target named is HLA-B*57:01. The description is as above.
Test [32] addresses HLA-B*58:01. The description is as above.
The target of test [33] is HLA-C*05:01. The description is as above.
Test [34] addresses HLA-A*02:06. Kind of test: IEDB peptide-MHC binding, purified MHC/competitive/fluorescence; filed as Kd, often an IC50 or EC50 that approximates it; ≥ and ≤ were set here for values at or beyond the usual limits of such assays. The conditions noted are these: source organism: Bacillus cereus.
Test [35] concerns the target HLA-A*02:01. Kind of test: IEDB peptide-MHC binding, purified MHC/direct/fluorescence; filed as Kd, often an IC50 or EC50 that approximates it; ≥ and ≤ were set here for values at or beyond the usual limits of such assays. The conditions noted are these: source organism: Mycobacterium tuberculosis C.
The target of test [36] is HLA-A*29:02. The description is as above. The conditions noted are these: source organism: Mycobacterium tuberculosis C.
Test [37] concerns the target HLA-B*08:01. The description is as above. The conditions noted are these: source organism: Mycobacterium tuberculosis C.
Test [38] concerns the target HLA-B*44:02. Described as above. The conditions noted are these: source organism: Mycobacterium tuberculosis C.
Test [39] has as its target HLA-B*15:42. Nature of the test: IEDB peptide-MHC binding, purified MHC/competitive/fluorescence; filed as Kd, often an IC50 or EC50 that approximates it; ≥ and ≤ were set here for values at or beyond the usual limits of such assays. The conditions noted are these: source organism: Mycobacterium tuberculosis H37Ra.
The target of test [40] is HLA-B*45:06. Described as above. The conditions noted are these: source organism: Mycobacterium tuberculosis H37Ra.
Test [41] deals with HLA-B*51:01. The test is described as above. The conditions noted are these: source organism: Mycobacterium tuberculosis H37Ra.
For test [42], the target named is HLA-B*83:01. The test is described as above. The conditions noted are these: source organism: Mycobacterium tuberculosis H37Ra.
Test [43] deals with HLA-A*26:01. Nature of the test: IEDB peptide-MHC binding, purified MHC/direct/fluorescence; filed as Kd, often an IC50 or EC50 that approximates it; ≥ and ≤ were set here for values at or beyond the usual limits of such assays. The conditions noted are these: source organism: Mycobacterium tuberculosis variant bovis.
For test [44], the target named is HLA-C*15:02. Described as above. The conditions noted are these: source organism: Mycobacterium tuberculosis variant bovis.
Where [45] appears, read: source organism: Entamoeba histolytica.
Setting [46] is: source organism: Bacillus anthracis.
[47] abbreviates: source organism: Bacillus cereus.
Where [48] appears, read: source organism: Mycobacterium tuberculosis C.
Where [49] appears, read: source organism: Mycobacterium tuberculosis variant bovis.

In general, Kd refers to the constant that tells how readily two partners part at equilibrium. A low value points to higher affinity.

Some results are limits rather than exact numbers.

Turning to RASHFRKLF, the Kd in [1] (setting [45]) is 0.019 µM; in test [2] (setting [45]), not below 20 µM; in [3], not below 20 µM; in [4] it was not below 20 µM; in test [5], not below 20 µM; in [6], not below 20 µM. Moreover, the Kd in test [7], in [8], in test [9], in test [10], in test [11] and in test [12] was not below 20 µM throughout. In addition, the Kd in test [13] was not below 20 µM; in test [14] it was not below 20 µM; in test [15] it was not below 20 µM; in [16], not below 20 µM; in test [17], 0.165 µM.

Regarding AMAGNPVVI, the dissociation constant Kd in test [1] (source organism: Leishmania donovani) is 0.727 µM.

Consider MSDIFASEV, for which the Kd was 0.0073 µM in [18] (setting [46]); not below 20 µM in test [19] (setting [46]); not below 20 µM in test [20] (setting [46]); not below 20 µM in [21] (setting [46]); not above 0.001 µM in [22]; not below 20 µM in test [23]. Also, the dissociation constant Kd in test [24] (setting [46]) was not below 20 µM; in test [25], 0.0021 µM; in test [26] (setting [46]), not below 20 µM; in [27], 0.467 µM; in [28] (setting [46]), not below 20 µM; in [29] (setting [46]) it was not below 20 µM. The Kd was not below 20 µM in [30] (setting [46]); not below 20 µM in [31] (setting [46]); not below 20 µM in [32] (setting [46]); not above 0.001 µM in test [33] (setting [47]); 0.0302 µM in test [2] (setting [47]); 0.0121 µM in [34].

Consider FPRYPLNVL, for which the Kd in [18] (setting [48]), in test [35], in test [19] (setting [48]), in test [20] (setting [48]), in [36] and in test [21] (setting [48]) was not below 20 µM throughout. Further, the Kd in test [37] is 1.04 µM; in test [24] (setting [48]), not below 20 µM; in [26] (setting [48]), not below 20 µM; in test [28] (setting [48]) it was not below 20 µM; in test [38], not below 20 µM; in [29] (setting [48]), not below 20 µM. Moreover, the Kd in test [30] (setting [48]) was not below 20 µM; in test [31] (setting [48]), not below 20 µM; in test [32] (setting [48]) it was not below 20 µM; in test [33] (source organism: Mycobacterium tuberculosis H37Ra), not below 20 µM; in test [39], not below 5 µM; in test [40] it was not below 5 µM. Moreover, the Kd in [41] is not below 20 µM; in test [42], 2.65 µM.

Take VTNDGVIFF: the Kd in [43] was 1.09 µM; in test [33] (setting [49]) it was 0.003 µM; in [1] (setting [49]), 0.319 µM; in [44], not below 20 µM.

The values above are taken from the Immune Epitope Database (IEDB).
